Data taken from patent publication US20160257757A1.

Experiments:
[1] = molecular target: full-length mouse GCGR (mouse) (UniProt Q61606); test: cell-based or functional assay
[2] = molecular target: full-length rat GCGR transiently expressed on HEK293 reporter cells (rat) (UniProt P30082); test: cell-based or functional assay
full-length rat GCGR transiently expressed on HEK293 reporter cells (rat), sequence (P30082 27-485 limits assumed): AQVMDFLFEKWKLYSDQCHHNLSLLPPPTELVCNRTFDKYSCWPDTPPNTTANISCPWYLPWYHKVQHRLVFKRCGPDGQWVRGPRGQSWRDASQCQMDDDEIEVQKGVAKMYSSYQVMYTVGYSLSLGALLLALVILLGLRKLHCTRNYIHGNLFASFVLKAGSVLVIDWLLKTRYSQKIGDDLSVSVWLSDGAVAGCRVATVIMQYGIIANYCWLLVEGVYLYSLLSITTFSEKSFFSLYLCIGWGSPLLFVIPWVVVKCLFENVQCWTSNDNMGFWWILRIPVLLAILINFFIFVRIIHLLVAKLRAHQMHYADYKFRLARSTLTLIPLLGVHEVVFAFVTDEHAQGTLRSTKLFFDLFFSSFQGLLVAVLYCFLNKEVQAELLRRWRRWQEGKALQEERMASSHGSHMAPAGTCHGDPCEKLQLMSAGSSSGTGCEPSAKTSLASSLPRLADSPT

full-length mouse GCGR (mouse), sequence (Q61606 27-485 limits assumed): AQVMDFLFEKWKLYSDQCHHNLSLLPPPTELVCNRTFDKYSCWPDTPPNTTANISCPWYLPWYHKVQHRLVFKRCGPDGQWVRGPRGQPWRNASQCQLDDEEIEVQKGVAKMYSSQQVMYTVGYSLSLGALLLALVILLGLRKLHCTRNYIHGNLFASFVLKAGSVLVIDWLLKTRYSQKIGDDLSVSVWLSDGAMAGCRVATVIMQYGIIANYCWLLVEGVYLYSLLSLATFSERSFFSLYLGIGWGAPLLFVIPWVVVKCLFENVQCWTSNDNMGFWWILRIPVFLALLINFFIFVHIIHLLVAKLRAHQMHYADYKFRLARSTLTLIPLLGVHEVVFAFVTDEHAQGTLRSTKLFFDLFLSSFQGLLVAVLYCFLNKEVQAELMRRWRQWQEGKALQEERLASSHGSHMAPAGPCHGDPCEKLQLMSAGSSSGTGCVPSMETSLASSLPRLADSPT

Q: Which results are given for “glucagon (from UniProt P01275 53-81) (ligand)”?
A: EC50 of luciferase (cAMP/CRE reporter) stimulation in HEK293/GCGR cells [1]: 83 pM; EC50 of luciferase (cAMP/CRE reporter) stimulation in HEK293/GCGR cells [2]: 252 pM
